Article PMC12501296, “P4HA2 interacted with ATAD3A to modulate PINK1/parkin-dependent mitophagy and ^125I brachytherapy sensitization in esophageal carcinoma” (Cell Death & Disease, 2025)

Molecular target: T1, ATAD3A-HA, in vitro translated (UniProt Q9NVI7-2 1-586)
T1 construct: ATAD3A (ATPase family AAA domain-containing 3A); the truncation map of the ATAD3A-HA plasmids ends at residue 586, which fits the 586-residue isoform; read as C-terminal; also called ATAD3A-HA (pcDNA3.1 vector); source: in vitro translated (TnT quick coupled transcription/translation, Promega), then purified
T1 sequence (looked up): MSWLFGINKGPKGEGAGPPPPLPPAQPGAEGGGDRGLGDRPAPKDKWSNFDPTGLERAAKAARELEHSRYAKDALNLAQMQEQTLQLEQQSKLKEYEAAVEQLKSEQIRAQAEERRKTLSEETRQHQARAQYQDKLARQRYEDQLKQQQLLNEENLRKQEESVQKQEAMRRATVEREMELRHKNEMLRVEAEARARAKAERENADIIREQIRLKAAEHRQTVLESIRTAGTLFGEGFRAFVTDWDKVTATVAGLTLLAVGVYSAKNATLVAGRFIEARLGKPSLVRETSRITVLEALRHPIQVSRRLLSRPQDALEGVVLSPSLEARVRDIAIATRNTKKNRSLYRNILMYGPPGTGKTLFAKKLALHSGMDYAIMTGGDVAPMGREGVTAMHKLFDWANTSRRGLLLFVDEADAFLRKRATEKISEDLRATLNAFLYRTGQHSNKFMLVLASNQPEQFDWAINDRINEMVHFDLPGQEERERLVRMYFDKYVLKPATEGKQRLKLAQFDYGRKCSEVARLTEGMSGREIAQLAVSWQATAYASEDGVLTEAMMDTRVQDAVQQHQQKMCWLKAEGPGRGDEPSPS
Assay: co-IP; P4HA2-FLAG and ATAD3A-HA made by TnT quick coupled transcription/translation (30 °C, 90 min), purified, then co-IP
Conditions: both partners purified

binding result: binds
B1: P4HA2-FLAG, in vitro translated (natural protein, UniProt O15460 1-535, looked up)
chain: MKLWVSALLMAWFGVLSCVQAEFFTSIGHMTDLIYAEKELVQSLKEYILVEEAKLSKIKSWANKMEALTSKSAADAEGYLAHPVNAYKLVKRLNTDWPALEDLVLQDSAAGFIANLSVQRQFFPTDEDEIGAAKALMRLQDTYRLDPGTISRGELPGTKYQAMLSVDDCFGMGRSAYNEGDYYHTVLWMEQVLKQLDAGEEATTTKSQVLDYLSYAVFQLGDLHRALELTRRLLSLDPSHERAGGNLRYFEQLLEEEREKTLTNQTEAELATPEGIYERPVDYLPERDVYESLCRGEGVKLTPRRQKRLFCRYHHGNRAPQLLIAPFKEEDEWDSPHIVRYYDVMSDEEIERIKEIAKPKLARATVRDPKTGVLTVASYRVSKSSWLEEDDDPVVARVNRRMQHITGLTVKTAELLQVANYGVGGQYEPHFDFSRNDERDTFKHLGTGNRVATFLNYMSDVEAGGATVFPDLGAAIWPKKGTAVFWYNLLRSGEGDYRTRHAACPVLVGCKWVSNKWFHERGQEFLRPCGSTEVD
notes: P4HA2 (Prolyl-4-Hydroxylase Alpha Subunit 2); read as C-terminal; also called P4HA2-FLAG (pcDNA3.1 vector); source: in vitro translated (TnT quick coupled transcription/translation, Promega), then purified
